The text below walks through data of patent US12202907B2, “Nucleic acids encoding and methods of producing proteins comprising antibody chains” (Innate Pharma, priority 2018, dated 2025).

The nature of data set [1]: Aggregation temperature (thermal shift stability assay). The following applies: human IgG1 with L234A/L235E/G237A/A330S/P331S. Format: physicochemical. How it is done:
(§1) Antibodies mAb1-24 and prior art anti-CD39 antibody BY40, all produced as human IgG1 isotypes with L234A/L235E/G237A/A330S/P331S substitutions were tested for stability in the following reference formulation at a concentration of approximatively 7 mg/mL: pH 6.0; histidine buffer (10 mM); sucrose (200 mM); NaCl (50 mM); Polysorbate 80 (PS80) (0.2 g/L). The stability of the formulations was monitored in two storage conditions (at +5° C.±3° C. and at +40±3° C. For each study, 3 time points were performed: T0, T15D (15 days) and T1M (1 month). A freeze thaw (F/T) and a thermal shift stability assay (TSSA) were conducted for the format comparison. To perform F/T cycles, the samples were frozen at least 2 hours at −20° C. and thawed at least 1 hour at room temperature, the F/T cycle is repeated three times and samples are tested 24 h after the last Freeze/Thaw cycle. At each time point, the following tests were performed: • Particulate Matter (MFI) • Visual Inspection (Appearance) • Impurities (SE-HPLC) • Turbidity (400 nm) • Protein Concentration (280 nm) (performed with Nanodrop, Thermo Fisher Scientific Inc.)

The target in data set [2] is T1, CD39 expressed by Ramos human lymphoma cells (Homo sapiens, UniProt P49961).
T1 construct: cells that endogenously express CD39 at their surface; host or cells: Ramos
T1 sequence (P49961 1-510): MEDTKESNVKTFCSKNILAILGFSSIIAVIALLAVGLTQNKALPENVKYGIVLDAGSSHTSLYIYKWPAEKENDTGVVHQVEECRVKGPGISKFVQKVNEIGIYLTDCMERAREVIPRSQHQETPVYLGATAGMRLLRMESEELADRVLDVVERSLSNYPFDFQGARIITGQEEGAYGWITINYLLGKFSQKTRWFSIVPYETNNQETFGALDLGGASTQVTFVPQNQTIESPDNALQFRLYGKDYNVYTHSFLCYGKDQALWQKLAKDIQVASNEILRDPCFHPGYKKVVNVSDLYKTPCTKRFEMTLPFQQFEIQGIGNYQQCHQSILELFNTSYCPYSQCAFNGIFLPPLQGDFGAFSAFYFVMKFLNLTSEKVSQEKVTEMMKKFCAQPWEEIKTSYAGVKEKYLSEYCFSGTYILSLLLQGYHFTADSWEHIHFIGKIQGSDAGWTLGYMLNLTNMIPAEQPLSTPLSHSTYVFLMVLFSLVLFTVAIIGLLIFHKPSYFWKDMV
The data set can be described thus: Inhibition of the enzymatic activity of cellular CD39 in Ramos cells. Format: cell-based. The following applies: Ramos cells. As to the method:
(§2) The inhibition of the CD39 enzymatic activity in CD39-expressing cells by antibodies was evaluated using Cell Titer GIo™ (Promega, reference G7571) that allows assessment of ATP hydrolysis through use of a reagent that generates a luminescent signal proportional to the amount of ATP present. The assay was thus designed to permit assessment of the inhibition of ATP hydrolyzed by CD39 in the cell culture supernatant. Briefly, 5×10^4 Ramos human lymphoma cells, 5×10^3 human CD39−, cynomolgus CD39—and mouse CD39− expressing CHO cells, were incubated 1 hour at 37° C. with anti-CD39 antibodies from 30 μg/ml to 5×10^−4 μg/ml. Cells were then incubated with 20 μM ATP for 1 additional hour at 37° C. Plates were centrifuged for 2 min at 400 g and 50 μl cell supernatant are transferred in a luminescence microplate (white wells). 50 μl CellTiter-Glo™ Reagent (CTG) was added to the supernatant and emitted light was quantified after a 5 min incubation in the dark using a Enspire™ luminometer. Anti-CD39 antibody efficacy was determined by comparing emitted light in presence of antibody with ATP alone (maximal light emission) and ATP together with cells (minimal light emission).

Data set [3] relates to soluble CD39 protein released in cell culture supernatant from CHO cells expressing human CD39. The data set can be described thus: Inhibition of ATPase activity of soluble CD39 released in CHO-huCD39 culture supernatant. It is filed as biochemical. The following applies: humanized variants. As to the method:
(§3) The inhibition by antibodies of the enzymatic activity of soluble CD39 protein produced was evaluated using Cell Titer GIo™ (Promega, reference G7571) that allows assessment of ATP hydrolysis through use of a reagent that generates a luminescent signal proportional to the amount of ATP present. In this way, inhibition of the soluble-CD39-meidated ATP hydrolysis can be assessed. Briefly, dose ranges of anti-CD39 antibodies from 100 μg/ml to […] were incubated with 400 ng/ml of soluble recombinant human CD39 protein having the amino acid sequence described in the Methods section (SEQ ID NO: 44), for 1 h at 37° C. 20 μM ATP was added to the plates for 30 additional minutes at 37° C. before addition of CTG (Cell Titer Glo) reagent. Emitted light was quantified using an Enspire™ luminometer after a short incubation period of 5 min in the dark. Anti-CD39 antibody efficacy was determined by comparing emitted light in presence of antibody with ATP alone (maximal light emission) and ATP together with soluble CD39 protein (minimal light emission).
Antibodies were tested for capacity to inhibit the ATPase activity of soluble CD39 protein using the assays used for inhibition of the enzymatic activity of soluble CD39 as described above (Methods). […]

The nature of data set [4]: Stability in reference formulation (storage, freeze thaw). It is filed as physicochemical. The following applies: about 7 mg/mL, pH 6.0 histidine/sucrose/NaCl/PS80, +5° C. and +40° C., up to 1 month. How it is done:
as §1

Data set [5] concerns the target T2, soluble recombinant human CD39 protein (Homo sapiens, UniProt P49961).
T2 construct: made in house; host or cells: CHO cells
T2 sequence (P49961 with tags, fused parts or gaps): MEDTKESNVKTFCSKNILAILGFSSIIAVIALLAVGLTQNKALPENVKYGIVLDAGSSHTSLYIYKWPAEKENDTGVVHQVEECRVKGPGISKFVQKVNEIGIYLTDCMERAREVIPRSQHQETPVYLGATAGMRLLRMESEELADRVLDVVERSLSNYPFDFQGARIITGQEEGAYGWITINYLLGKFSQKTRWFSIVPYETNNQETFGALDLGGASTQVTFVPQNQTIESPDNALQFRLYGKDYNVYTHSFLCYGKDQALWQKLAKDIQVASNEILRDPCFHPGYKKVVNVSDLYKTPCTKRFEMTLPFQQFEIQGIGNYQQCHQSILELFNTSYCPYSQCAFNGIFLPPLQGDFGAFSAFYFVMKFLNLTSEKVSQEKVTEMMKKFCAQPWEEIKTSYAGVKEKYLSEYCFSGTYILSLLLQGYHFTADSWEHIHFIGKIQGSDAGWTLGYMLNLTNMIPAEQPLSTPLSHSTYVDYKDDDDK
The data set can be described thus: Inhibition of the enzymatic activity of soluble CD39 (Cell Titer Glo, cell-free). Format: biochemical. The following applies: humanized variants. How it is done: as §3

The target in data set [6] is T3, human Ramos lymphoma cells (CD39) (Homo sapiens, UniProt P49961).
T3 construct: cells that endogenously express CD39 at their surface; host or cells: Ramos
T3 sequence (P49961 1-510): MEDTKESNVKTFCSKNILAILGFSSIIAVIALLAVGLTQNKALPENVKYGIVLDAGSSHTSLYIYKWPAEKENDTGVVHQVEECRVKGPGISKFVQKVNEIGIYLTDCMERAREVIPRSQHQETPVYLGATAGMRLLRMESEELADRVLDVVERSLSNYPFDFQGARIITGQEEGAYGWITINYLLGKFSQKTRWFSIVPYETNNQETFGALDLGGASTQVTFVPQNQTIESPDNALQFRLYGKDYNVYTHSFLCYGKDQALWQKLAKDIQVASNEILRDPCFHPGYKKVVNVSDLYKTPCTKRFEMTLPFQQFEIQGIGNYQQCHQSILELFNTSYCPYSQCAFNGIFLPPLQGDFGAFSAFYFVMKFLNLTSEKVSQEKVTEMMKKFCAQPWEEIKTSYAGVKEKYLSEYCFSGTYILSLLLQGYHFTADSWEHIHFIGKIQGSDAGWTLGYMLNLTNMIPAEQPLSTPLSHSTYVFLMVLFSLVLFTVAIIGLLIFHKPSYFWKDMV
As to the kind of experiment: Antibody titration on Ramos cells by flow cytometry. It is filed as binding. The following applies: comparison. How it is done:
Antibody I-394 was tested in two repeated experiments for binding to CHO cells expressing human CD39, CHO cells expressing cynomolgus (Macaca fascicularis) CD39, CHO cells expressing murine CD39, and human Ramos lymphoma cells (ATCC™, reference CRL-1596). Cells were incubated with various concentration of unlabeled anti-CD39 antibody from 30 μg/ml to 5×10^−4 μg/ml, for 30 minutes at 4° C. After washes, cells were incubated with Goat anti-mouse H+L labeled secondary antibody for 30 min at 4° C.

Data set [7] deals with T4, membrane-bound CD39 in Mino tumor cells (Homo sapiens, UniProt P49961).
T4 construct: endogenous in cells; host or cells: Mino
T4 sequence (P49961 1-510): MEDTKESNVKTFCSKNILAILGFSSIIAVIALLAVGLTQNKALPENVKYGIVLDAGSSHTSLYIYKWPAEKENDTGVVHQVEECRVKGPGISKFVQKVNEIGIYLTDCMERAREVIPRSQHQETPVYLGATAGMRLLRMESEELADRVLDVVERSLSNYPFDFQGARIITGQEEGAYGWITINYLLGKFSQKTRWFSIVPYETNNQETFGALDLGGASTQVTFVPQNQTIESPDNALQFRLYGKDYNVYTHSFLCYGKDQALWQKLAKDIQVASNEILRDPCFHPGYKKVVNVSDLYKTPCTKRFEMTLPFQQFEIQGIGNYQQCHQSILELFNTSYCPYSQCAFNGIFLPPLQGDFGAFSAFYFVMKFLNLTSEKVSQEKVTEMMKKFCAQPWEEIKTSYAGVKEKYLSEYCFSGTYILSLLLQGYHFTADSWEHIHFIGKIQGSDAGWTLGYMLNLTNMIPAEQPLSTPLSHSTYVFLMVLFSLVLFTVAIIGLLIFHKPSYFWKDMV
As to the kind of experiment: Inhibition of the enzymatic activity of cellular CD39 in Mino cells. Format: cell-based. As to the method:
as §2
Antibodies were tested for potency in inhibition of ATPase activity in cell lines that express membrane-bound CD39. […]

B1: mAb20: humanized I-394 variant, VH H4 (SEQ ID NO: 31), VL L1 (SEQ ID NO: 36); heavy chain SEQ ID NO: 38, light chain SEQ ID NO: 39 (antibody)
heavy: QVQLVQSGAEVKKPGASVKVSCKASGYTFTDYNMHWVRQAPGQRLEWIGYIVPLNGGSTFNQKFKGRATITVDTSARTAYMELSSLRSEDTAVYYCARGGTRFAYWGQGTLVTVSSASTKGPSVFPLAPSSKSTSGGTAALGCLVKDYFPEPVTVSWNSGALTSGVHTFPAVLQSSGLYSLSSVVTVPSSSLGTQTYICNVNHKPSNTKVDKRVEPKSCDKTHTCPPCPAPEAEGAPSVFLFPPKPKDTLMISRTPEVTCVVVDVSHEDPEVKFNWYVDGVEVHNAKTKPREEQYNSTYRVVSVLTVLHQDWLNGKEYKCKVSNKALPSSIEKTISKAKGQPREPQVYTLPPSREEMTKNQVSLTCLVKGFYPSDIAVEWESNGQPENNYKTTPPVLDSDGSFFLYSKLTVDKSRWQQGNVFSCSVMHEALHNHYTQKSLSLSPGK
light: DIVMTQSPDSLAVSLGERATINCRASESVDNFGVSFMYWFQQKPGQPPKLLIYGASNQGSGVPDRFSGSGSGTDFTLTISSLQAEDVAVYYCQQTKEVPYTFGGGTKVEIKRTVAAPSVFIFPPSDEQLKSGTASVVCLLNNFYPREAKVQWKVDNALQSGNSQESVTEQDSKDSTYSLSSTLTLSKADYEKHKVYACEVTHQGLSSPVTKSFNRGEC
Regarding B1, the “Aggregation temperature (TAgg)” value in data set [1] was about 70 °C. Besides, the “potency at blocking CD39 enzymatic activity relative to other antibodies” value in data set [2] and in data set [7] was “more potent at blocking CD39 enzymatic activity compared to all other antibodies” in each case. Moreover, in data set [3], the “potency relative to parental I-394, soluble CD39 in CHO-huCD39 supernatant” value is on record as “comparable to the parental I-394 antibody”. In addition, in data set [4], the physicochemical stability entry is given as “good physicochemical stability”. Also, the “potency for inhibition of soluble CD39 relative to parental I-394” value in data set [5] was “comparable to the parental I-394 antibody”. The “binding to Ramos cells relative to I-394” value in data set [6] is “best binding”.

B2: mAb21: humanized I-394 variant, VH H4 (SEQ ID NO: 31), VL L1* (SEQ ID NO: 37); heavy chain SEQ ID NO: 38, light chain SEQ ID NO: 40 (antibody)
heavy: QVQLVQSGAEVKKPGASVKVSCKASGYTFTDYNMHWVRQAPGQRLEWIGYIVPLNGGSTFNQKFKGRATITVDTSARTAYMELSSLRSEDTAVYYCARGGTRFAYWGQGTLVTVSSASTKGPSVFPLAPSSKSTSGGTAALGCLVKDYFPEPVTVSWNSGALTSGVHTFPAVLQSSGLYSLSSVVTVPSSSLGTQTYICNVNHKPSNTKVDKRVEPKSCDKTHTCPPCPAPEAEGAPSVFLFPPKPKDTLMISRTPEVTCVVVDVSHEDPEVKFNWYVDGVEVHNAKTKPREEQYNSTYRVVSVLTVLHQDWLNGKEYKCKVSNKALPSSIEKTISKAKGQPREPQVYTLPPSREEMTKNQVSLTCLVKGFYPSDIAVEWESNGQPENNYKTTPPVLDSDGSFFLYSKLTVDKSRWQQGNVFSCSVMHEALHNHYTQKSLSLSPGK
light: DIVMTQSPDSLAVSLGERATINCKASESVDNFGVSFMYWFQQKPGQPPKLLIYGASNQGSGVPDRFSGSGSGTDFTLTISSLQAEDVAVYYCQQTKEVPYTFGGGTKVEIKRTVAAPSVFIFPPSDEQLKSGTASVVCLLNNFYPREAKVQWKVDNALQSGNSQESVTEQDSKDSTYSLSSTLTLSKADYEKHKVYACEVTHQGLSSPVTKSFNRGEC
As for B2, the “Aggregation temperature (TAgg)” value in data set [1] was about 70 °C. The “potency at blocking CD39 enzymatic activity relative to other antibodies” value in data set [2] and in data set [7] was “more potent at blocking CD39 enzymatic activity compared to all other antibodies” each time. In addition, in data set [3], the “potency relative to parental I-394, soluble CD39 in CHO-huCD39 supernatant” value was “comparable to the parental I-394 antibody”. For the same molecule, in data set [4], the physicochemical stability result is recorded as “good physicochemical stability”. In addition, the “potency for inhibition of soluble CD39 relative to parental I-394” value in data set [5] is given as “comparable to the parental I-394 antibody”. Further, in data set [6], the “binding to Ramos cells relative to I-394” value is on record as “best binding”.
